Where a chain is given by its changes, count along the chain named. Values belong to the binder of their own block, whether it stands above or below them.
Experiments:
[1] = target: T1, C1s-cleaved glycosylated recombinant human C2 (human, UniProt P06681 21-243; P06681 244-752, N-linked glycans); assay: ELISA, C1s-cleaved C2 coated at 200 ng per well
T1 construct: Cleavage at the Arg243-|-Lys244 bond as printed; also called C1s-cleaved recombinant human C2; C1s-cleaved C2; not shown: N-terminal his-tag
T1 sequence 1: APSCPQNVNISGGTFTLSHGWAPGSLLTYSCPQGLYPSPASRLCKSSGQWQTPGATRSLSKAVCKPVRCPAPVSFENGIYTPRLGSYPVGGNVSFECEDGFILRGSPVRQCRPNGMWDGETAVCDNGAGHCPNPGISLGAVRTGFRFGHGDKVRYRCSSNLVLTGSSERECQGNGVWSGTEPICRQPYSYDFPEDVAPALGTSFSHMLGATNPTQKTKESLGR
T1 sequence 2: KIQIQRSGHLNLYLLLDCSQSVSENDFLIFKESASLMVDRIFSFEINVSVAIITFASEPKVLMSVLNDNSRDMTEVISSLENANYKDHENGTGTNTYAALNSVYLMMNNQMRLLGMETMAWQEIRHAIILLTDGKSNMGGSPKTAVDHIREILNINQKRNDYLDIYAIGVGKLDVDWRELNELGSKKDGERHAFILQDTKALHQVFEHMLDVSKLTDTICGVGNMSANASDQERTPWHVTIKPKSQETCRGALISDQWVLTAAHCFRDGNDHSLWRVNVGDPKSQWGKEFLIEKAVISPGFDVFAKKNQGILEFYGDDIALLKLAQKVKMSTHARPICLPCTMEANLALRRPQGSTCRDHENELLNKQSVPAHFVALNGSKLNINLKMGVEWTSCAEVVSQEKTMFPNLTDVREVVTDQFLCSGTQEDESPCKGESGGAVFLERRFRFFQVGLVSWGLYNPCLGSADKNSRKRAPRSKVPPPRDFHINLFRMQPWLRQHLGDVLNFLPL

[2] = target: T2, glycosylated recombinant human complement C2 with a N-terminal his-tag (human, UniProt P06681 21-752, N-linked glycans); assay: ELISA, C2 coated at 200 ng per well
T2 construct: also called recombinant human C2; wild-type recombinant C2; not shown: N-terminal his-tag
T2 sequence: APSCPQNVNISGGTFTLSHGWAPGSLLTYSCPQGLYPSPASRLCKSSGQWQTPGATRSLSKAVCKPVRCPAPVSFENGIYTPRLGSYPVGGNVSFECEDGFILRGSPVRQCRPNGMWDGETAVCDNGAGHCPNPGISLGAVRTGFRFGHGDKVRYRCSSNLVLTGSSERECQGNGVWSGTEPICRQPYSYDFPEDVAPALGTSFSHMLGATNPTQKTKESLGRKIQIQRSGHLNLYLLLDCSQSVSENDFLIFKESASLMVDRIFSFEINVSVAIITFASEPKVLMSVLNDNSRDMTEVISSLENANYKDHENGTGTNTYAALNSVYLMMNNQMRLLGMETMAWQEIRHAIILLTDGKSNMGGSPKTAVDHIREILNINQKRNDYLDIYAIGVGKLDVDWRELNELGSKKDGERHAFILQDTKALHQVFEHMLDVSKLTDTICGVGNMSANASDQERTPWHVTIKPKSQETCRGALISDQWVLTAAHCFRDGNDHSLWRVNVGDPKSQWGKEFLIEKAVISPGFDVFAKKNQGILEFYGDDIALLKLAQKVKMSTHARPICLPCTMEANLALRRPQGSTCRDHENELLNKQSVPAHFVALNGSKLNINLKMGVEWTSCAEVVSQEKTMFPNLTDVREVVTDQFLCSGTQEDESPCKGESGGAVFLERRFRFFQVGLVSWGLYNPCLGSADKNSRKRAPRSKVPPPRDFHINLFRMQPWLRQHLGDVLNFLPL

[3] = target: T3, glycosylated recombinant human subcomponent C2a (≈70 kDa) (human, UniProt P06681 244-752, N-linked glycans); assay: Western blot of C1s-cleaved C2, non-reducing, mAb at 200 ng/mL
T3 construct: Larger fragment of C1s-cleaved recombinant C2; Start 244 follows from the printed cleavage site; also called purified C2a; recombinant human C2a
T3 sequence: T1 sequence 2
Experimental: (a). Mapping of Epitopes for mAbs Anti-C2-13, -32, -35, -60 and -5F2.4 on Glycosylated Recombinant Human Subcomponents C2a and C2b with Western Blotting Glycosylated recombinant human C2 (range 125-500 ng/lane, see FIG. 9; U-protein Express) or C1s-cleaved glycosylated recombinant human C2 (range 62.5-1000 ng/lane, see FIG. 9; for C2 cleavage procedure, see Example 1(b)) were electrophorized using 4-12% Tris-Bis gels and MOPS running buffer (Invitrogen) under non-reducing conditions in pre-cast SDS-PAGE (NuPage® Novex® system). Then, the C2 proteins were electro-blotted onto a polyvinylidene fluoride (PDVF) transfer membrane (Millipore). After blocking with PBS/0.05% Tween 20/1% BSA fraction V (Roche) for 20 min at RT, PDVF membranes were incubated with anti-C2 mAbs anti-C2-C2-5F2.4 (100 ng/mL), anti-C2-13 (200 ng/mL), anti-C2-32 (200 ng/mL), anti-C2-35 (100 ng/mL) and anti-C2-60 (200 ng/mL) for 1 hour at RT. After extensive washing in PBS/0.05% Tween 20, binding of anti-C2 mAbs was determined with 1:10,000 diluted horseradish peroxidase-conjugated goat anti-mouse Fcγ-specific antibodies (Jackson ImmunoResearch) for 1 hour at RT, followed by a ready-to-use solution of TMB substrate (Sigma) for colorimetric detection.

[4] = target: T2, glycosylated recombinant human …; assay: ELISA, C2 coated at 25 or 200 ng per well
Experimental: Chimeric mouse-human antibodies (human IgG1κ version for anti-C2-32, and human IgG4κ version for anti-C2-5F2.4, -13, -32, -35 and -60) were expressed using FreeStyle™ MAX CHO (CHO-S cells) Expression System (Invitrogen). Expressed chimeric mouse-human anti-human complement C2 antibodies were purified using affinity chromatography protein A columns (GE Healthcare). Using the same ELISA procedure as described in Example 3, all anti-C2 chimeric mAbs were tested for binding to high (200 ng per well) and low (25 ng per well) recombinant C2. Briefly, ELISA plates (Corning) were coated with the indicated amount of C2 in PBS overnight at 4° C. After extensive washing in PBS/0.05% Tween 20, plates were blocked with PBS/0.05% Tween 20/1% BSA fraction V (Roche) for 1 hour at RT. […] After extensive washing in PBS/0.05% Tween 20, binding of antibodies was determined with 1:5000 diluted horseradish peroxidase-conjugated goat anti-human IgG-specific (heavy and light chains) antibodies (Jackson ImmunoResearch) for 1 hour at RT, followed by a ready-to-use solution of TMB substrate (Invitrogen) for colorimetric detection. After adding 1 M H_2SO_4, optical densities were measured at a wavelength of 450 nm (reference wavelength of 655 nm) using a microplate reader (BioRad).

[5] = target: T2, glycosylated recombinant human …; assay: ELISA, recombinant human C2 immobilized at 2 µg/ml
Experimental: Chimeric mouse-human antibodies (human IgG1κ version for anti-C2-32, and human IgG4κ version for anti-C2-5F2.4, -13, -32, -35 and -60) were expressed using FreeStyle™ MAX CHO (CHO-S cells) Expression System (Invitrogen). Expressed chimeric mouse-human anti-human complement C2 antibodies were purified using affinity chromatography protein A columns (GE Healthcare). Using the same ELISA procedure as described in Example 3, all anti-C2 chimeric mAbs were tested for binding to high (200 ng per well) and low (25 ng per well) recombinant C2. Briefly, ELISA plates (Corning) were coated with the indicated amount of C2 in PBS overnight at 4° C. After extensive washing in PBS/0.05% Tween 20, plates were blocked with PBS/0.05% Tween 20/1% BSA fraction V (Roche) for 1 hour at RT. Subsequently, plates were incubated with 0, 0.00002-20.0 (10-fold dilution steps in block buffer) μg/mL protein A-purified chimeric mouse-human IgG1κ and/or IgG4κ anti-C2-5F2.4, -13, -32, -35 and -60 for 1 hour at RT. After extensive washing in PBS/0.05% Tween 20, binding of antibodies was determined with 1:5000 diluted horseradish peroxidase-conjugated goat anti-human IgG-specific (heavy and light chains) antibodies (Jackson ImmunoResearch) for 1 hour at RT, followed by a ready-to-use solution of TMB substrate (Invitrogen) for colorimetric detection. After adding 1 M H_2SO_4, optical densities were measured at a wavelength of 450 nm (reference wavelength of 655 nm) using a microplate reader (BioRad).
Binding of humanized anti-C2-5F2.4 mAbs versions VL3VH3, VL4VH3, VL3VH4, and VL4VH4 to C2 was assessed by ELISA like described above in Example 12 (recombinant human C2 was immobilized to plates at 2 µg/ml).

B1: mouse anti-human complement C2 antibody anti-C2-60 (mIgG1κ) (antibody, V domains shown)
VH: QVALKESGPGILQPSQTLSLTCSFSGFSLSTSNMGVGWIRQPSGKGLEWLAHIWWDDDKRYNPALKSRLTISKDTSSNQVFLKIASVDTADTATYFCARIGRPTMITTWYLDVWGAGTTVTVSS
VL: DIQMTQSPASLSVSVGETVTITCRASENIYSNLAWYQQKQGKSPQLLVYAATKLADGVPSRFSGSGSGTQYSLKINSLQSEDFGNYYCQHFWNTPYTFGGGTKLEIKR
notes: Hybridoma antibody, murine IgG1κ; also called antibody 60; hybridoma 60
binding result [1]: binds
binding result [2]: binds
binding result [3]: binds

B2: mouse anti-human complement C2 antibody anti-C2-5F2.4 (mIgG2aκ) (antibody, V domains shown)
VH: EVQLQQSGAELVKPGASVKISCKASGYTFTDYNMDWVKQSHGKSLEWIGDINPNYESTGYNQKFKGKATLTVDKSSSTAYMELRSLTSEDTAVYYCAREDDHDAFAYWGQGTLVTVSA
VL: DNVLTQSPASVVVSLGQRATISCRASKSVRTSGYNYMHWYQQKPGQPPKLLIYLASNLKSGVPARFSGSGSGTDFTLNIHPVEEADAATYYCQHSRELPYTFGGGTKLEIKR
notes: also called mAb 5F2.4
binding result [1]: binds

B3: chimeric mouse-human IgG4κ anti-human complement C2-5F2.4 (antibody, V domains shown)
VH: B2 VH
VL: B2 VL with N2I
notes: Stabilized human IgG4 / human κ, expressed in CHO-S cells; also called chimeric anti-C2-5F2.4; chuIgG4κ anti-C2-5F2.4
binding result [4]: binds

B4: chimeric mouse-human IgG4κ anti-human complement C2-60 (antibody, V domains shown)
VH: B1 VH with A3Q, K5Q, E6Q
VL: B1 VL
notes: Stabilized human IgG4 / human κ, expressed in CHO-S cells; also called chimeric anti-C2-60; chuIgG4κ anti-C2-60
binding result [4]: binds

B5: humanized IgG4/kappa anti-human complement C2-5F2.4 version VL3VH3 (antibody)
heavy: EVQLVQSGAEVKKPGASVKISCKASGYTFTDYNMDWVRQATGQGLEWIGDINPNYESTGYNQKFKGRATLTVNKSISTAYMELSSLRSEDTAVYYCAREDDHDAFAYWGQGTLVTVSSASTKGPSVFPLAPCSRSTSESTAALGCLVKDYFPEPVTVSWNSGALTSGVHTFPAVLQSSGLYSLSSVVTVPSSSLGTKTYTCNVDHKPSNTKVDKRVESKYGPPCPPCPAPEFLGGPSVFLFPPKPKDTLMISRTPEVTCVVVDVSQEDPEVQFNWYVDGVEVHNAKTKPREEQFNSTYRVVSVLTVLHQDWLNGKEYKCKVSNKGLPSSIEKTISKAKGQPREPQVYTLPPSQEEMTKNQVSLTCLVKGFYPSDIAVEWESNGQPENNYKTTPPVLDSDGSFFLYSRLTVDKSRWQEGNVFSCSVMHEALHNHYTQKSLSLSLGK
light: DNVLTQSPDSLAVSLGERATISCRASKSVRTSGYNYMHWYQQKPGQPPKLLIYLASNLKSGVPDRFSGSGSGTDFTLTISSLQAEDAATYYCQHSRELPYTFGQGTKLEIKRTVAAPSVFIFPPSDEQLKSGTASVVCLLNNFYPREAKVQWKVDNALQSGNSQESVTEQDSKDSTYSLSSTLTLSKADYEKHKVYACEVTHQGLSSPVTKSFNRGEC
notes: Stabilized human IgG4, κ; expressed with the FreeStyle 293 system
binding result [5]: binds

More lines, now with the values ahead:

binding result [5]: binds
B6: humanized IgG4/kappa anti-human complement C2-5F2.4 version VL3VH4 (antibody)
heavy: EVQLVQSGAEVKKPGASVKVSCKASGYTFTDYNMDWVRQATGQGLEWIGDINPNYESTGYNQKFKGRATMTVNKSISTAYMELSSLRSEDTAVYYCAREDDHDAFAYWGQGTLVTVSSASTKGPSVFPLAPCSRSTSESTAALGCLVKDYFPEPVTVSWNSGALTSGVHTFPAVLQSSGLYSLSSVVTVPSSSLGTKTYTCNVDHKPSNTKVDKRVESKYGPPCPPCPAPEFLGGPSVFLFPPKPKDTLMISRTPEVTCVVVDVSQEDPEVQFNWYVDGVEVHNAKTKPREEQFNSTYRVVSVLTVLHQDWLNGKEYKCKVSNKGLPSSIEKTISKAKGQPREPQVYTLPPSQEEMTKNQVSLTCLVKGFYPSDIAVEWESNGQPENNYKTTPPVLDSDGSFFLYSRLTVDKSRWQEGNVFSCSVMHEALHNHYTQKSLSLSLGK
light: B5 light
notes: as for B5

binding result [5]: binds
B7: humanized IgG4/kappa anti-human complement C2-5F2.4 version VL4VH3 (antibody)
heavy: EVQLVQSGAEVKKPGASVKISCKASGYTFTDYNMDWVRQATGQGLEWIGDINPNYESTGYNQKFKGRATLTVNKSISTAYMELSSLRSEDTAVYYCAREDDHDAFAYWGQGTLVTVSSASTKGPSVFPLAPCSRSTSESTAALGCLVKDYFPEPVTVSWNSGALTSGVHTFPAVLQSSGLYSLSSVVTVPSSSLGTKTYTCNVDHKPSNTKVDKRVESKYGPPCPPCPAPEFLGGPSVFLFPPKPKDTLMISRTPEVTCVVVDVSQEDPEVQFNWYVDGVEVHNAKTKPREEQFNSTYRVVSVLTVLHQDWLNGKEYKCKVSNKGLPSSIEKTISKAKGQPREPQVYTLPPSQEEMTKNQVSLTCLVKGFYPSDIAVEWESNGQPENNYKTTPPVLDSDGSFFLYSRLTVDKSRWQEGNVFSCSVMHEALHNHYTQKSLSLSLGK
light: B5 light with S22N
notes: as for B5

binding result [5]: binds
B8: humanized IgG4/kappa anti-human complement C2-5F2.4 version VL4VH4 (antibody)
heavy: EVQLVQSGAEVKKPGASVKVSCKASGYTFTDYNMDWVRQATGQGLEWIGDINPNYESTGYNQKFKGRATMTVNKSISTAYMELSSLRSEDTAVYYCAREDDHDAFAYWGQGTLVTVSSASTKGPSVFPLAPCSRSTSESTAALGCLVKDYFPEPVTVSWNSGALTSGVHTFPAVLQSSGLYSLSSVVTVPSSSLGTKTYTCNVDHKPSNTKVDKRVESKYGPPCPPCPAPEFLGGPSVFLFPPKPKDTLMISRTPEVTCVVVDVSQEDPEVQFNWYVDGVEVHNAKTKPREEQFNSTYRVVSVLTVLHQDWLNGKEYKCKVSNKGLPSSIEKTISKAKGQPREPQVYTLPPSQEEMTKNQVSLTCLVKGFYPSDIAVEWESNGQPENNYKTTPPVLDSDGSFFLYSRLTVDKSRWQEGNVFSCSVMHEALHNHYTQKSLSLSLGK
light: B5 light with S22N
notes: as for B5
